The source of these data is patent publication US20220119489A1, “COMPOSITIONS AND METHODS FOR TREATING MUSCULAR DYSTROPHY AND RELATED DISORDERS” (CHILDREN'S MEDICAL CENTER CORPORATION, priority 2019, published 2022).

The target of assay [1] is T1, CD82 polypeptide (human) (human).
T1 sequence (P27701 whole entry, looked up): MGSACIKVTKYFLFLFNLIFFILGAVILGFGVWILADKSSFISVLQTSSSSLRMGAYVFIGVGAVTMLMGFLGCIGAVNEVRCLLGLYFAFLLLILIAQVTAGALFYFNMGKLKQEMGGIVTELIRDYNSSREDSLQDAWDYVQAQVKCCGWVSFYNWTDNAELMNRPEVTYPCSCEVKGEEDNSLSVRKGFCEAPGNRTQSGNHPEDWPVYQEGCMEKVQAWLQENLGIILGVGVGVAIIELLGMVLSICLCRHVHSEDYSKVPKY
Kind of assay: IP with anti CD82 antibodies, human myotubes, mass spectrometry.

Another assay has as its target CD82 (mouse) (mouse) (UniProt P40237). Briefly: IP with anti CD82 antibodies, mouse muscle tissue, mass spectrometry.

Chain of Annexin A2 (human) (P07355 2-339 limits assumed): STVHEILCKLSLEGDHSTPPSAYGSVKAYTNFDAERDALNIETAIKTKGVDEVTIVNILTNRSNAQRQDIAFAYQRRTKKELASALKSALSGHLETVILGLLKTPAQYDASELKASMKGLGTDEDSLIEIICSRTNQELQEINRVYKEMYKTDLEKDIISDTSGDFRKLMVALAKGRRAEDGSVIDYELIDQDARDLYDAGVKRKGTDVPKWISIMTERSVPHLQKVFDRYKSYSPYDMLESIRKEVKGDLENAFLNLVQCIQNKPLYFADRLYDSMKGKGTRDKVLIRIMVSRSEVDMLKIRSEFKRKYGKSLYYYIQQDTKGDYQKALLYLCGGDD

Take “Annexin A2 (human) (from UniProt P07355)”: in assay [1], the Total amounted to 5 and the Unique is 5.

In assay [1], Dysferlin (from UniProt O75923) yielded a Total of 32 and a Unique of 31.

In assay [1], Filamin A (from UniProt P21333) yielded a Total of 30 and a Unique of 30.

In assay [1], Filamin B (from UniProt O75369) yielded a Total of 3 and a Unique of 3.

In assay [1], Filamin C (from UniProt Q14315) showed a Total of 24 and a Unique of 24.

Consider “G3P_MOUSE (from UniProt P16858) (enzyme)”, for which, in the assay with CD82 (mouse) (mouse), the Total was determined as 2 and the Unique is 2.

In the assay with CD82 (mouse) (mouse), KV2A7_MOUSE gave a Total of 2 and a Unique of 2.

In assay [1], Myoferlin (from UniProt Q9NZM1) showed a Total of 32 and a Unique of 31.

As for TBA1A_MOUSE (from UniProt P68369), in the assay with CD82 (mouse) (mouse), the Total is 3 and the Unique was found to be 3.

Turning to “nonmuscle myosin IIA (from UniProt P35579)”, in assay [1], the Total worked out at 77 and the Unique was determined as 64.

In assay [1], profilin (from UniProt P07737) showed a Total of 3 and a Unique of 3.
